What was measured:
p21+/+ cells = experiment: Sensitivity of isogenic cell lines, p21+/+; type: cell-based, human; conditions: p21+/+ isogenic cell line; Mean ± SD, n = 3
Source text: (§1) The p53/p21 checkpoint monitors the integrity of the genome and blocks cell cycle progression in the event of DNA damage. Disruption of the checkpoint by deletion of the p21 gene results in failure to arrest in response to DNA damage ultimately leading to cell death through apoptosis. Since loss of this checkpoint is a hallmark of cancer cells, an isogenic pair of cell lines, wherein one pair of the cell line (p21+/+) has an intact p21 gene and one member (p21−/−) has a deletion in the p21 gene, can be used to screen for potential anti-tumor compounds by identifying molecules that preferentially induce apoptosis in p21-deficient cells.
(§2) The Actinomadura sp. 21G792 chromoprotein was added to an isogenic pair of cell lines (p21+/+ and p21−/−).

p21−/− cells = experiment: Sensitivity of isogenic cell lines, p21−/−; type: cell-based, human
Source text: as §1, §2

MDA-MB-361 = experiment: Potency against human tumor cell lines: MDA-MB-361; type: cell-based; conditions: MDA-MB-361, Breast
HN5 = experiment: Potency against human tumor cell lines: HN5; type: cell-based; conditions: HN5, Head & Neck
Supercoiled φX174 DNA = experiment: DNA cleavage assay, gel electrophoresis; type: biochemical
Method: Supercoiled φX174 DNA was incubated with various concentrations of the 21G792 chromoprotein and analyzed by gel electrophoresis. […] Nicked refers to single strand breaks in the DNA and linear refers to double strand breaks.

[1] = tested on: p53/p21 checkpoint in HCT116 (p21+/+ and p21−/−) cells; experiment: Induction of the G1/S (p53/p21) checkpoint, immunoblot; type: cell-based, human
Source text: HCT116 (p21+/+ and p21−/−) cells were exposed to the chromoprotein at various concentrations. […] Activation of the DNA damage checkpoint by the Actinomadura sp. […] 21G792 chromoprotein as shown by the cleavage of poly ADP ribose […] (PARP) (FIG. 23B). This is consistent with the lower IC50 value in the p21−/− cells.

KB = experiment: IC50 against P-GP expressing cells: KB; type: cell-based; conditions: P-GP level −, mean of two independent experiments
Source text: (§3) Human PGP (MDR1) is an ATP-dependent efflux pump which is capable of transporting many drugs across cell membranes. High level expression of this protein has been linked to multiple drug resistance of tumors. […] The protein component of the chromoprotein probably protects the chromophore from drug efflux mediated by MDR1, and may be responsible for the beneficial antitumor effects in colon cell lines which often express MDR1.

KB-8-5 = experiment: IC50 against P-GP expressing cells: KB-8-5; type: cell-based; conditions: KB-8-5, P-GP level +; mean of two independent experiments
Source text: as §3

KB-V-1 = experiment: IC50 against P-GP expressing cells: KB-V-1; type: cell-based; conditions: KB-V-1, P-GP level +++; mean of two independent experiments
Source text: as §3

B1: Actinomadura sp. 21G792 chromoprotein: non-covalent complex of an apoprotein and a chromophore comprising a nine-membered enediyne, produced by Actinomadura sp. 21G792 (NRRL 30778) (protein)
chain: DTVTVNYDCVGYPSDIAVTIDAPATAGVGDTATFEVSSVVTTGAPQDLPAGEVVTDMAIVVGGAQSGTITASGLTNEATPAGQPVNMVGGEAQITFTSAGSVTFTPSTTTQVDNGAQCTVVGEAPVGATTVVS
- IC50 (p21+/+ cells): 90000 ± 32000 ng/mL
- Selectivity Ratio (p21−/− cells; IC50 p21+/+ versus p21−/−): 13
- IC50 (p21−/− cells; p21−/− isogenic cell line, Mean ± SD, n = 3): 7000 ± 2000 ng/mL
- IC50 higher for p21+/+ cells than for p21−/− cells (p21−/− cells; text statement of the selectivity): 13 fold
- IC50 (MDA-MB-361): 5 ng/mL
- IC50 (HN5): 4 ng/mL
- need of a reducing agent (dithiothreitol, DTT) for DNA cleavage (Supercoiled φX174 DNA): did not require a reducing agent
- DNA cleavage (Supercoiled φX174 DNA; various concentrations, reaction progressed over 24 hours): induced single strand breaks and double strand breaks
- induction of the p21 protein [1]: seen in the p21+/+ cells only
- phosphorylation of serine-15 of p53 [1]: phosphorylation of the serine-15 amino acid residue in p53
- activation of the p53 checkpoint ([1]; HCT116 p21+/+ and p21−/−, various concentrations): activation of the p53 checkpoint for all tested concentrations
- induction of apoptosis (PARP cleavage) ([1]; p21−/− compared with p21+/+ cells): preferentially observed in p21−/− cells
- IC50 (KB): 10 ng/mL
- IC50 (KB-8-5): 6 ng/mL
- IC50 (KB-V-1): 142 ng/mL

From patent publication US20080274959A1, “Actinomadura Chromoprotein, Apoprotein and Gene Cluster” (Wyeth, priority 2004, published 2008)
